According to paper PMC3587646, “Structural Characterization of a Recombinant Fusion Protein by Instrumental Analysis and Molecular Modeling” (PLoS ONE, 2013):

Biological target: VEGF-A (UniProt P15692 1-395)
Experiment: SPR; unpublished data of the authors; format and conditions not told
Conditions: both partners purified

B1: Conbercept (Fc fusion)
chain: GRPFVEMYSEIPEIIHMTEGRELVIPCRVTSPNITVTLKKFPLDTLIPDGKRIIWDSRKGFIISNATYKEIGLLTCEATVNGHLYKTNYLTHRQTNTIIDVVLSPSHGIELSVGEKLVLNCTARTELNVGIDFNWEYPSSKHQHKKLVNRDLKTQSGSEMKKFLSTLTIDGVTRSDQGLYTCAASSGLMTKKNSTFVRVHEKPFVAFGSGMESLVEATVGERVRIPAKYLGYPPPEIKWYKNGIPLESNHTIKAGHVLTIMEVSERDTGNYTVILTNPISKEKQSHVVSLVVYVPP
modifications: seven N-glycosylation sites, all occupied (the N in the tryptic peptides 29-39 VTSPNITVTLK, 60-69 GFIISNATYK, 117-124 LVLNCTAR, 193-198 NSTFVR, 242-253 NGIPLESNHTIK, 267-281 DTGNYTVILTNPISK, 372-380 …); two inter-chain disulfide bonds at the Fc hinge
Kd: 0.429 nM
